Values quoted from earlier work in article PMC2827930.

Molecular target: RBPjκ (UniProt P31266)
Sequence of UniProt P31266 (P31266 53-474): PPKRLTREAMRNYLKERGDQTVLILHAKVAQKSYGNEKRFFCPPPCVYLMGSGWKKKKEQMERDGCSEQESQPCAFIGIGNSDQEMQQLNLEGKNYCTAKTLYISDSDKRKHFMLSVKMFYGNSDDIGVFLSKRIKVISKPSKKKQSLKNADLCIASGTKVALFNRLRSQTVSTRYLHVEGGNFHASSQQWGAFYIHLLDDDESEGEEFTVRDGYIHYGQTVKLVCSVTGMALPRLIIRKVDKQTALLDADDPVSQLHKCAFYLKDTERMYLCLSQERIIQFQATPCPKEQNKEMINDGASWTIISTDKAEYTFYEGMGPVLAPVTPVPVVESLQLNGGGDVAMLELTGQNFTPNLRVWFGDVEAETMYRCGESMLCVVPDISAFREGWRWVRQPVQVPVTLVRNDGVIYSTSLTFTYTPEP

Notch RAM (from UniProt P46531)
Kd: 200 nM
